Assay results published in paper doi:10.1101/2020.02.11.943159 (bioRxiv, 2020).
Where no end group is shown, it is not given here.

Columns and labels:
[1] = target: pS2 CTD diheptapeptide; experiment: fluorescence correlation spectroscopy
[2] = target: pS2pS5 CTD diheptapeptide; experiment: fluorescence correlation spectroscopy
[3] = target: T1, pS2 CTD diheptapeptide (also: pS2: Ser2 phosphorylated, which heptad repeat(s) not given here); experiment: fluorescence polarisation
T1 peptide: YSPTSPSYSPTSPS

[4] = target: T2, pS2pS5 CTD diheptapeptide (also: pS2pS5: Ser2 and Ser5 phosphorylated, which heptad repeat(s) not given here); experiment: fluorescence polarisation
T2 peptide: YSPTSPSYSPTSPS

[5] = target: T3, pS2pS7 CTD diheptapeptide (also: pS2pS7: Ser2 and Ser7 phosphorylated, which heptad repeat(s) not given here); experiment: fluorescence polarisation
T3 peptide: YSPTSPSYSPTSPS

**Q.** What does the source list for “PHF3 SPOC domain (1199-1356aa), bacterially expressed (from UniProt Q92576 1199-1356) (domain or fragment)”?
**A.** stoichiometry N [1]: 1; stoichiometry N [2]: 1

B1: PHF3 SPOC R1248A mutant, bacterially expressed (domain or fragment)
chain: STFLARLNFIWKGFINMPSVAKFVTKAYPVSGSPEYLTEDLPDSIQVGGAISPQTVWDYVEKIKASGTKEICVVRFTPVTEEDQISYTLLFAYFSSRKRYGVAANNMKQVKDMYLIPLGATDKIPHPLVPFDGPGLELHRPNLLLGLIIRQKLKRQHS
**Q.** How did the “fold reduction of binding against SPOC WT” value (from here on “fold reduction of binding”) [3] turn out when B1 was run?
**A.** > 10 fold

**Q.** And the “fold reduction of binding” value [4]?
**A.** > 10 fold

**Q.** And the “fold reduction of binding” value [5]?
**A.** > 10 fold
